Measurements reported in patent US20150125421A1.
Each block holds one molecule with its values, some of them ahead of it.

Key:
Test in all cases: cell-based or functional assay
[1] = molecular target: rat MHC class II RT1B (I-A) glycoproteins (rat)
[2] = molecular target: rat IL-2 receptor on cells (rat)
[3] = molecular target: rat IL-4 receptor on cells (rat)

[3H]thymidine incorporation of RsL.11 T cells with 100 nM cytokine/NAg in the presence of OX6 [1]: < 10000 cpm | [3H]thymidine incorporation of RsL.11 T cells with 100 fM-10 nM cytokine/NAg in the presence of OX6 [1]: < 1000 cpm | inhibition of the antigenic reactivity of IL4.4 (RsL.11 proliferation, irradiated splenic APC) (orders of magnitude) [1]: > 5 | inhibition of the response to GPMBP (RsL.11 proliferation, irradiated splenic APC) [1]: 100 fold
Molecule: OX6 anti-I-A (RT1B) IgG1 mAb (antibody)

antigenic potency against GPMBP (RsL.11 proliferation, irradiated splenic APC) [3]: > 1000 times
B2: IL4Ekdel (rat IL4/GP73-87/6his fusion protein) (protein)
chain: CNDSPLREIINTLNQVTEKGTPCTEMFVPDVLTATRNTTENELICRASRVLRKFYFPRDVPPCLKNKSGVLGELRKLCRGVSGLNSLRSCTVNESTLTTLKDFLESLKSILRGKYLQSCTSMSPQKSQRSQDENPVVHHHHHHH
potency against GPMBP in MHCII-dependent T cell-mediated killing assay (R1-trans T-APC) [3]: 1000 times

antigenic potency against GPMBP added with saturating IL-4 as a separate molecule [3]: 100 fold | antigenic potency against GPMBP, by antigen concentrations eliciting a half maximal response (RsL.11 proliferation, irradiated splenic APC) [3]: > 100 fold | inhibition by soluble IL-4 of the RsL.11 proliferative response to IL4.4 (irradiated splenic APC) [3]: 10 fold
B3: IL4.4 (rat IL4/EK/GP73-87/6his fusion protein) (protein)
chain: CNDSPLREIINTLNQVTEKGTPCTEMFVPDVLTATRNTTENELICRASRVLRKFYFPRDVPPCLKNKSGVLGELRKLCRGVSGLNSLRSCTVNESTLTTLKDFLESLKSILRGKYLQSCTSMSGDDDDKGPQKSQRSQDENPVVHHHHHHH

Further lines, the molecule ahead of its results:

B1: IL2.7 (rat IL2/EK/GP73-87/6his fusion protein) (protein)
chain: APTSSPAKETQQHLEQLLLDLQVLLRGIDNYKNLKLPMMLTFKFYLPKQATELKHLQCLENELGALQRVLDLTQSKSFHLEDAGNFISNIRVTVVKLKGSENKFECQFDDEPATVVEFLRRWIAICQSIISTMTQGDDDDKGPQKSQRSQDENPVVHHHHHHH
antigenic potency against GPMBP added with saturating IL-2 as a separate molecule [2]: 100 fold | inhibition by soluble IL-2 of the RsL.11 proliferative response to IL2.7 (irradiated splenic APC) [2]: 10 fold | potency against GPMBP in T cell-mediated cytotoxic assay (R1-trans T-APC, irradiated RsL.11), IL-2 added 24 hours after initiation of culture [2]: 1000 times | potency against GPMBP in T cell-mediated cytotoxic assay (R1-trans T-APC, irradiated RsL.11), IL-2 added at the initiation of culture [2]: 32 fold

B4: IL2Ekdel (rat IL2/GP73-87/6his fusion protein) (protein)
chain: APTSSPAKETQQHLEQLLLDLQVLLRGIDNYKNLKLPMMLTFKFYLPKQATELKHLQCLENELGALQRVLDLTQSKSFHLEDAGNFISNIRVTVVKLKGSENKFECQFDDEPATVVEFLRRWIAICQSIISTMTQPQKSQRSQDENPVVHHHHHHH
lowest concentration fully active in MHCII-dependent T cell-mediated killing assay [2]: 100 fM | potency against GPMBP or DHFR-NAg in MHCII-dependent T cell-mediated killing assay (R1-trans T-APC) (orders of magnitude) [2]: > 5
